Experimental data from patent US20090186816.

Key:
[1] = tested on: F-ZFPNARP-meth-NES (ZFPNARP fused to human DNMT3a catalytic domain residues 592-909) (synthetic construct); assay: cell_activity
[2] = tested on: F-ZFPcont-meth-NES (ZFPcont fused to human DNMT3a catalytic domain residues 592-909) (synthetic construct); assay: cell_activity; details: NARP cells; scale: fold lower CpG methylation than F-ZFPNARP-meth-NES

For “GCCCTGGCC (double strand) [wild-type mtDNA 8993 site]”, the activity ([1]; wt cells, indistinguishable from background, scale: fold lower CpG methylation than on NARP site) was 6.
For “GCCCGGGCC (double strand) [NARP T8993G mtDNA site]”, the activity (% of clones with CpG methylation) ([1]; bisulfite sequencing around site in NARP cybrid cells, CpGs within site protected) was 23 and the activity [2] was 6.
